Results reported in patent US11905559B2, “Materials and methods for controlling gene expression” (priority 2016, dated 2024).

Assay: Force-ramp mechanical unfolding-refolding of the guanine-aptamer (optical tweezers)
Format: physicochemical
Details: for Unfolding force of the aptamer / Observed nucleotides / Observed ΔXobs: +1 μM guanine, force-ramp; for Observed nucleotides / Observed ΔXobs: complete aptamer (69 nt), 18 pN
Procedure: A 69 nucleotide (nt) guanine-sensing aptamer (FIGS. 3 and 4A-B) from xpt-pbuX operon in B. subtilis was used for mechanical unfolding-refolding studies. In the experimental set up shown in FIGS. 2A-E, a single molecule of the guanine-aptamer RNA was clamped between two polystyrene beads through RNA-DNA handles. […] Considering the inter-nucleotide distance as 0.448 nm at 18 pN, then using a serial worm-like chain equation
The forces on the bead were recorded at an acquisition rate of 44 kHz. Data was collected from the stereo phone jacks on the ADC boards of the Tweezers instrument and sent to the host computer audio input for analysis by SignalScope program (Faber Acoustical, LLC). As shown in the plot, power spectral density is fitted with the Lorentzian fit to yield the corner frequency (fc) that was used to calculate the trap stiffness. This setup was used to perform three different mechanical reactions: force-ramp (FR), constant-force (CF) and force-jump (FJ) under a controlled force. In the force-ramp (FR) experiment, the trap was moved at 200 nm/s, which corresponded to a loading rate 7-8 pN/s. […] The force-ramp data is plotted as force vs. extension curves (FEC).
In the force-ramp experiment, the trap was moved away (pull cycle) from the micropipette at 200 nm/sec, which corresponded to a loading rate of 7-8 pN/sec. This movement of the trap exerted a tension at the ends of the tethered RNA aptamer. […] In the constant-force (CF) experiment, the RNA was held at a preset force (FIG. 6A). The loading rate in CF experiments was zero. The preset force typically fluctuated around the mean with standard deviation ±0.15 pN. The force-ramp and the CF experiments were carried out at an ambient temperature 25±0.5° C. in buffer containing 10 mM Tris-HCl, pH 7.5 at 250 mM NaCl, 3 mM MgCl2 unless mentioned otherwise.

[1] = 200 nM guanine, sequential unfolding

B1: wt: 69-nucleotide full-length wild-type guanine sensing aptamer RNA sequence from xpt-pbuX operon in B. subtilis (SEQ ID NO: 1) (nucleic acid)
chain: CACUCAUAUAAUCGCGUGGAUAUGGCACGCAAGUUUCUACCGGGCACCGUAAAUGUCCGACUAUGGGUG
modifications: RNA, backbone and methylation of C not given here
- Force at which P1 melted [1]: 5-10 pN
- Force at which P2, P3 unfolded [1]: 12-15 pN
- Unfolding force of the aptamer (listed as guanine-aptamer): 18.6±1.1 pN
- Unfolding force of the aptamer (listed as isolated aptamer): ~18.0 pN
- Observed nucleotides: 67.1 ± 2
- Observed ΔXobs: 30.2 ± 1.0 nm
- Observed nucleotides (listed as 69 nt-aptamer): 67±2
- Observed ΔXobs (listed as guanine-aptamer): 30.2±1 nm
- Observed ΔXobs (listed as isolated aptamer): ~30 nm
